Assay [1] addresses K63-linked diubiquitin (UniProt P0CG48). In words: ITC. The conditions noted are these: domain or fragment.
Assay [2] concerns the target K48-linked diubiquitin (UniProt P0CG48). The assay can be described thus: ITC. The conditions noted are these: domain or fragment.

In article PMC3098244 one finds Kd data, which are given here for 1 substance.

Chain of GB1-HSJ1a-UIM12 (UIM domain of HSJ1a, residues 206-272, fused to GB1) (P25686 206-272): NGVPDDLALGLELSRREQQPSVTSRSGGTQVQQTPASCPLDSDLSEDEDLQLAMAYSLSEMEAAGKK

As for “GB1-HSJ1a-UIM12 (UIM domain of HSJ1a, residues 206-272, fused to GB1) (from UniProt P25686-2 206-272)”, the Kd in assay [1] came out at 153 µM; in assay [2] it was 57 µM.
